These are literature values, as cited in publication PMC4134939.

In general, Kd refers to the constant that tells how readily two partners part at equilibrium.

The target of this data set is ubiquitin (Homo sapiens) (UniProt P0CG47).

DNA polymerase iota UBM1, sequence (Q9UNA4 513-557): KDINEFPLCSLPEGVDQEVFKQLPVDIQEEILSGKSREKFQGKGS

As for “DNA polymerase iota UBM1 (from UniProt Q9UNA4)”, the Kd was 130 µM.
